Assay results published in article doi:10.1101/412908 (bioRxiv, 2018).

B1: human Hsp90β (natural protein)
chain: not shown
B2: acrylodan-labeled C-terminal domain of Aha1 (164-338) (domain or fragment)
chain: ILPTMNGESVDPVGQPALKTEERKAKPAPSKTQARPVGVKIPTCKITLKETFLTSPEELYRVFTTQELVQAFTHAPATLEADRGGKFHMVDGNVSGEFTDLVPEKHIVMKWRFKSWPEGHFATITLTFIDKNGETELCMEGRGIPAPEEERTRQGWQRYYFEGIKQTFGYGARLF
modifications: acrylodan (thiol-reactive probe on cysteine residues)

Key:
[1] = target: B2; experiment: other fluorescence titration
[2] = target: B1; experiment: other fluorescence titration

Row | Binder | fold increase in Kd with SEW04784 against without [1] | binding result [2]
1 | B1 | 2.5 fold | 
2 | B2 |  | binds
